According to the supplement of paper PMC10126150:
± gives the standard deviation of the averaged measurements.

test system: ATP; test: switch fluorescence ratio, 500 uM ATP over buffer (Cy3 cluster intensity, sum of 5 cycles each) (fold (ratio)); higher = stronger signal-on switching upon ATP binding; sequences stand for … in TCGTCGGCAGCGTCAGATGTGTATAAGAGACAGTTTTTTTTTTTTTTTTTTTTTTTTT…TC; details: aptamer strand: ATP DNA aptamer (quencher-CACCTGGGGGAGTATTGCGGAGGAAGG + anchor), 100 nM annealed; ATP concentration: 500 uM
Outline: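 The quencher-labelled ATP aptamer, at 100 nM, was annealed to Cy3-labelled switching-strand clusters on a modified Illumina MiSeq flow-cell. The clusters were imaged in selection buffer, then after 15 min with 500 uM ATP at 22 °C, and this buffer/ATP cycle ran five times with NaOH stripping and re-annealing between runs. Per-cluster fluorescence ratios, summed target-cycle over summed buffer-cycle Cy3 intensity, were averaged per switch-domain sequence. Clusters outside 100-1000 RFU were excluded.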
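Note: ATP exposure 15 min at 22 °C before imaging.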

| Sequence | switch fluorescence ratio |
| --- | --- |
| TCTGGAGCCG | 1.04 ± 0.022 |
| AGTGGGAAGG | 0.956 ± 0.021 |
| GACTGGCATA | 1.097 ± 0.0039 |
| GGTTAATTAG | 0.9819 ± 0.0077 |
| GGTTCGGCGG | 1.01 ± 0.045 |
| GAGTGAGTAC | 1 ± 0.055 |
| AGAGGGAGGA | 1.017 ± 0.0086 |
| TGTGGGTGAG | 1 ± 0.02 |
| TCGTTCGGGG | 1.041 ± 0.0049 |
| CGGGATGCCT | 1 ± 0.021 |
| GCTTAAGGCG | 0.991 ± 0.051 |
| GGGTGGGCTT | 0.997 ± 0.032 |
| TTTCTTCCCT | 1.13 ± 0.11 |
| TTCGGTTTGT | 0.98 ± 0.032 |
| GCGGCGGGGG | 0.99 ± 0.031 |
| ATATCAGGGG | 1.13 ± 0.017 |
| TATCAACCTT | 1.25 ± 0.34 |
| TGGGGGGGTG | 1.01 ± 0.033 |
| TGTAATCTAC | 1.06 ± 0.057 |
| ACTGGTCTCA | 1.002 ± 0.0098 |
| GGTATGAAGG | 0.9664 ± 0.0095 |
| ATGGTCATGT | 0.9943 ± 0.0072 |
| CAGGTTGGGG | 1.03 ± 0.054 |

| Sequence | switch fluorescence ratio |
| --- | --- |
| AGTGTACGGG | 1.083 ± 0.0077 |
| TGGGGTATTT | 0.997 ± 0.04 |
| TTGAGTACTA | 1.01 ± 0.022 |
| ATTTTAAGGG | 1.003 ± 0.0042 |
| GATAATGGTA | 1.008 ± 0.005 |
| AGGAATTACG | 1.05 ± 0.041 |
| TTTATAAGAT | 1.01 ± 0.012 |
| AACTCAGGGG | 1.29 ± 0.067 |
| TTTCTTCTTT | 1.02 ± 0.044 |
| GGTAGGAGAT | 1.05 ± 0.036 |
| TTTTAGGGCA | 1 ± 0.018 |
| GAAGGTCAGT | 0.971 ± 0.051 |
| GCATTTCTTC | 1.03 ± 0.04 |
| ATCGTTGGG | 1.01 ± 0.055 |
| GGGGAAAAAG | 1.01 ± 0.028 |
| GTACGAAGTT | 0.973 ± 0.013 |
| GTCTGGGCGG | 0.9919 ± 0.0031 |
| CGTCCTGGGT | 0.995 ± 0.011 |
| ACTTACATGG | 1.23 ± 0.06 |
| TAAGAGGGGC | 1 ± 0.037 |
| TTTGGATATT | 1.03 ± 0.095 |
| TGGACCCGAT | 0.978 ± 0.011 |
| TAGGGCACGA | 0.97 ± 0.08 |

| Sequence | switch fluorescence ratio |
| --- | --- |
| AGATTTAGGG | 0.986 ± 0.017 |
| AAGTATACTT | 0.986 ± 0.0049 |
| CGGGGTGCTG | 1.03 ± 0.03 |
| AAGTTTTTTG | 0.989 ± 0.013 |
| ATGTATGTGC | 0.997 ± 0.041 |
| TAAAATGGGG | 1 ± 0.022 |
| GGTCCGATCG | 0.9694 ± 0.0045 |
| GCAGCACGCG | 1.03 ± 0.031 |
| ATGATTGGA | 0.992 ± 0.015 |
| GAAGGCGGAT | 1.01 ± 0.018 |
| CTCCGTTAGT | 3.1 ± 0.065 |
| TATAATATTT | 1 ± 0.021 |
| TGGGCATTTT | 0.987 ± 0.025 |
| TTTTCAATGT | 1.04 ± 0.048 |
| TATAATAGCT | 1.02 ± 0.023 |
| ATGGGCCGAG | 0.989 ± 0.04 |
| GGTGCGGGGG | 0.987 ± 0.093 |
| GACCTAAGAC | 1.13 ± 0.053 |
| GTAAGGGTTG | 0.961 ± 0.012 |
| GTAGCTTTGG | 1.04 ± 0.027 |
| CCAGGCGGGG | 0.9969 ± 0.0046 |
| ATCGTTTGTT | 1.04 ± 0.062 |
| GGTAGGGGGG | 1.01 ± 0.035 |

| Sequence | switch fluorescence ratio |
| --- | --- |
| CTAGGTAACG | 1.02 ± 0.033 |
| TTCAGACCGT | 1.016 ± 0.0064 |
| ATATACGGCA | 1.19 ± 0.08 |
| GGGTCGGGGA | 0.97587 ± 0.00076 |
| TTCTGTTTCT | 0.995 ± 0.011 |
| GCATCTAGAT | 0.986 ± 0.018 |
| CGGGCCACGC | 1.04 ± 0.019 |
| TGTTTCCGTG | 0.9766 ± 0.0027 |
| TTCTGATTAT | 1 ± 0.035 |
| TGAGGTATGC | 0.994 ± 0.031 |
| AAGATTGTTT | 0.986 ± 0.033 |
| GTTCTCAGAT | 0.982 ± 0.013 |
| CGTGCAAAGG | 1.05 ± 0.013 |
| TAAGCGTTGT | 0.98 ± 0.054 |
| GAAGGGTTTG | 0.9968 ± 0.0053 |
| GAAAGTGGTG | 0.9921 ± 0.0055 |
| ACCACAGAGC | 1.04 ± 0.051 |
| ATTGGGGGAT | 1.02 ± 0.078 |
| GGCCTGCTCG | 0.988 ± 0.029 |
| TTGTTAACTT | 0.985 ± 0.017 |
| TTTATATGGC | 1.03 ± 0.08 |
| AGCTGATTGC | 1 ± 0.02 |
| CTATTAATGT | 0.989 ± 0.028 |

| Sequence | switch fluorescence ratio |
| --- | --- |
| CAAATTGGGT | 0.996 ± 0.04 |
| TGGGGATCTC | 1.01 ± 0.024 |
| AGAAAATTTC | 1.04 ± 0.051 |
| GTTATCGAGG | 1.02 ± 0.011 |
| TTACGGTATG | 1.09 ± 0.035 |
| TAATAAGGAG | 1.004 ± 0.0074 |
| TTTGAATATT | 0.991 ± 0.036 |
| AGGAAATTAT | 1.01 ± 0.029 |
| GGACATAATT | 1.01 ± 0.029 |
| TTCGGAGGAT | 1.02 ± 0.048 |
| AGATATTACG | 1.03 ± 0.037 |
| GCGCTTGGAA | 1.02 ± 0.049 |
| GTTTACTCTT | 0.996 ± 0.025 |
| GGCGTATATC | 1.02 ± 0.023 |
| CAGCTATTTA | 1.02 ± 0.025 |
| CATTTAGTGT | 0.984 ± 0.012 |
| CGGATCTGAA | 1.01 ± 0.016 |
| TATTAGTTGC | 1 ± 0.034 |
| TTGAGTAACT | 0.967 ± 0.024 |
| ACTGTTTTCG | 1.02 ± 0.028 |
| CTGCGGGCCG | 1.004 ± 0.0073 |
| CTGTATTCAC | 1.04 ± 0.033 |
| ACCGTAGCGG | 1.12 ± 0.023 |

| Sequence | switch fluorescence ratio |
| --- | --- |
| GGGGTGTTCT | 1.02 ± 0.045 |
| ACAACGCTTG | 1.01 ± 0.032 |
| TATATGTTTT | 0.968 ± 0.013 |
| CTCCCTGGGT | 1.401 ± 0.013 |
| TGGCGGTGCT | 0.997 ± 0.028 |
| TTTGTTTGCG | 1.03 ± 0.032 |
| AGTCTCTGGG | 0.974 ± 0.024 |
| GTTGGGCCCA | 1 ± 0.016 |
| GAGTGTATTT | 1.02 ± 0.016 |
| TTCACTGGGA | 0.9962 ± 0.00098 |
| ACACCCGGCC | 1.28 ± 0.068 |
| CATTGGCCGG | 1.095 ± 0.0025 |
| ATAGGCTGTT | 0.986 ± 0.038 |
| ATTTTTGCTT | 0.994 ± 0.019 |
| GGGAGGGGGA | 1.01 ± 0.035 |
| TAATTTAAGG | 0.993 ± 0.039 |
| CGGCTTGCTG | 1.03 ± 0.018 |
| ATTGGCTAGT | 0.966 ± 0.02 |
| CGCTGACATT | 1.019 ± 0.0034 |
| TGCTGAAAGA | 1.04 ± 0.028 |
| CCGGTTTCGT | 1.26 ± 0.26 |
| TTTAGCTCTG | 1.02 ± 0.019 |
| ATTTATGCAG | 0.9992 ± 0.0035 |

| Sequence | switch fluorescence ratio |
| --- | --- |
| CATGGATACG | 1.01 ± 0.021 |
| AAAAAAGTGG | 1.02 ± 0.026 |
| TATACACATT | 1.02 ± 0.035 |
| AATGCTGGTT | 1.01 ± 0.015 |
| ACGGATATTA | 1.01 ± 0.0031 |
| TTTTTGTATG | 1.02 ± 0.034 |
| GGCGGGATGC | 1 ± 0.031 |
| TTGTTGCTTG | 1.02 ± 0.028 |
| TCTGTATTCG | 1.005 ± 0.0033 |
| CATCGGCAAG | 5.75 ± 1.3 |
| CGGTCCGGCG | 1.012 ± 0.0011 |
| TAATTTTTT | 1 ± 0.038 |
| TTTGCTATAG | 1.23 ± 0.28 |
| TAGAGAGGAG | 1.03 ± 0.021 |
| TCAATACGTT | 1.09 ± 0.016 |
| TATAAAGGGA | 1.04 ± 0.029 |
| GGTTGAAGGT | 1 ± 0.03 |
| GTTTTTTAGG | 0.978 ± 0.0056 |
| TTAGGAGGTG | 1.08 ± 0.018 |
